Experimental data: CN114829399A (dated 2022)

T1: 人FLT3/FLK2受体蛋白 (human, UniProt P36888 27-993)
T1 construct: whole, on cells; Always presented on cells (REH/Reh endogenous); also called CD135; 人酪氨酸激酶受体FLT3/FLK2受体蛋白
T1 sequence (looked up): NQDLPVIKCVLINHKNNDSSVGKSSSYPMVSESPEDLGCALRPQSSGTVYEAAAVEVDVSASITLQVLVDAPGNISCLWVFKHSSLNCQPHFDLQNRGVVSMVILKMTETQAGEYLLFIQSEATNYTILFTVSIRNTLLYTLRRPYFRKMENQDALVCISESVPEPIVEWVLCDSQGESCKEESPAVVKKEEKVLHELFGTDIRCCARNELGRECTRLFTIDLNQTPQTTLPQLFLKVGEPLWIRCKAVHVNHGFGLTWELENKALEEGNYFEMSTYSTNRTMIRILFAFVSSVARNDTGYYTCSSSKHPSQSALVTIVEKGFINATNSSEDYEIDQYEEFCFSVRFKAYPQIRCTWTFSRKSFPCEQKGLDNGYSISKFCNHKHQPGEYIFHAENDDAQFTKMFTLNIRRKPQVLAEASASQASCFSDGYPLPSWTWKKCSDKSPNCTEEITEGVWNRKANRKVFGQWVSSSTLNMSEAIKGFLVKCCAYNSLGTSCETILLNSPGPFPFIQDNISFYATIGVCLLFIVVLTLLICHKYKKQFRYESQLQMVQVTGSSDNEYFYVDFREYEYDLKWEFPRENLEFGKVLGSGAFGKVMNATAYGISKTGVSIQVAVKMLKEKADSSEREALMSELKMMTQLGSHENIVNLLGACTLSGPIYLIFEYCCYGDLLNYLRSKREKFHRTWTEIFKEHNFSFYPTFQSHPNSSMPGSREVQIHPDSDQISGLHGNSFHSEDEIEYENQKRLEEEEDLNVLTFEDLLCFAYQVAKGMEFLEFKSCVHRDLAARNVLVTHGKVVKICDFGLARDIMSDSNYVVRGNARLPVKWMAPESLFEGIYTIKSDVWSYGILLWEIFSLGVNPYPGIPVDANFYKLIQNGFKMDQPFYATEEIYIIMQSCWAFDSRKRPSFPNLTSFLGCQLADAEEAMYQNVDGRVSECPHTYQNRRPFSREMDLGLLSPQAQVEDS


The binders below were run against T1, 人FLT3/FLK2受体蛋白 (assay: flow cytometry EC curve on REH cells).

binding result | Binder
binds | MHC1693 - 3-16HA (antibody, V domains shown, Mouse monoclonal from hybridoma; Entries are called 'light chain' and 'heavy chain'; also called Ab3-16HA) VH: EVQLQQSGAELVRPGALVKLSCKGSGFNIKDYYIHWVKQRPEQGLEWIGRIDPENDITMYDPKFQGKASITADTSSNTAYLQLSSLTSEDTAVYYCARNGNFFAYWGQGTLVTVSA VL: not shown
binds | MHC1694 - 1-18BA (antibody, V domains shown, Mouse monoclonal from hybridoma; Entries are called 'light chain' and 'heavy chain'; also called Ab1-18New) VH: QVTLKESGPGILQPSQTLSLTCSFSGFSLSTSTMGVGWIRQPSGKGLEWLLHILWNDSKYYNPALKSRLTISKDTYNKQVFLKIANVDTADTATYYCARIVYYSTYVGYFDVWGAGTTVTVSS VL: DIQMTQSPSSLSASLGERVSLTCRASQEISGYLSWLQQKPDGTIKRLIYAASTLHSGVPKRFSGSRSGSDYSLTISRLESEDVADYYCLQYASYPFTFGSGTKLEIR
binds | MHC1692 - 1-23DA (antibody, V domains shown, Mouse monoclonal from hybridoma; also called Ab1-23DA) VH: QVTLKESGPGILQPSQTLSLTCSFSGFSLSTSTMGVGWIRQPSGKGLEWLLHILWNDSKYYNPALKSRLTISKDTYNKQVFLKIANVDTADTATYYCARIVYYSTYVGYFDVWGAGTTVTVSS VL: DIQMTQSPSSLSASLGERVSLTCRASQEISGYLSWLQQKPDGTIKRLIYAASTLHSGVPKRFSGSRSGSDYSLTISRLESEDVADYYCLQYASYPFTFGSGTKLEIR
